The nature of series [1]: Stability study of SAHH / His•SAHH. Type of series: physicochemical. As to conditions: 45° for three days; FIGS. 2 and 5. From the text: FIG. 2 contains the results of a stability study of SAHH.
FIG. 5 contains the results of a stability study of His•SAHH.
The SAHH enzyme of the invention has favorable properties. For instance, the SAHH has a high specific activity of at least […]. Further, the cloned SAHH of the invention provides a high expression of 20% of total cell protein. Moreover, SAHH produced according to the method of the invention has high stability as illustrated in the attached FIGS. 2 and 5.
The enzyme was formulated as follows: 20 mM potassium phosphate buffer, pH 7.6, 100 mM sodium chloride, 30% glycerol, 1 mM DTT, 1 mM NAD, and 1 mM EDTA.

Series [2] can be described thus: SAHH activity measurement (SAH hydrolysis coupled to rHCYase, DBPDA readout). Type of series: biochemical. On the procedure: Assay buffer: 20 mM potassium phosphate, pH 8.0, 1 mM DTT, and 1 mM EDTA.
2 mM S-adenosyl-L-homocysteine (SAH)
L-homocysteine (various concentrations)
40 mM DBPDA, dissolved in 6 M HCl
40 mM potassium ferricyanide
Mix well and incubate at 37° C. for 10 min. and read absorbance at 675 nm or fluorescence at EX665 nm/EM690 nm. 1 unit is defined as 1 μmole of S-adenosylhomocysteine hydrolated in 1 min. at 37° C. in the presence of excess rHCYase.

B1: SAHH: Recombinant T. vaginalis S-adenosyl homocysteinase encoded by SEQ ID NO:1 (amino acid SEQ ID NO:7), expressed in E. coli (protein, listed as Homo sapiens)
chain: MACKSPTGAPFEYRIADINLHVLGRKELTLAEKEMPGLMVLRERYSASKPLKGVRISGSLHMTVQTAVLIETLTALGADVRWASCNIFSTQDTAAAAIVVGPTGTPEKPAGIPVFAWKGETLPEYWENTYRALTWPDGQGPQQVVDDGGDATLLISKGFEFETAGAVPEPTEADNLEYRCVLATLKQVFNQDKNHWHTVAAGMNGVSEETTTGVHRLYQLEKEGKLLFPAINVNDAVTKSKFDNIYGCRHSLIDGINRASDVMIGGKTALVMGYGDVGKGCAQSLRGQGARVIITELDPICALQAAMEGYQVRRIEEVVKDVDIFVTCTGNCDIISVDMMAQMKDKAIVGNIGHFDNEIDTDGLMKYPGIKHIPIKPEYDMWEFPDGHAILLLAEGRLLNLGCATGHPSFVMSMSFTNQTLAQLDLYEKRGNLEKKVYTLPKHLDEEVARLHLGSLDVHLTKLTQKQADYINVPVEGPYKSDAYRY
Turning to B1, in series [1], the “stability (activity loss)” value is “without activity loss”. Besides, the specific activity result in series [2] (general statement on the SAHH of the invention) is given as “at least 1.5 U/ml”; in series [2] (purified enzyme, 1 unit = 1 μmole SAH hydrolated in 1 min at 37° C. with excess rHCYase), 1.64 units/mg protein.

Values taken from patent US6713273B2, “High expression and production of high specific activity recombinant S-adenosyl homocysteinase (SAHH) and improved assays for S-adenosylmethionine (SAM)” (priority 2000, dated 2004).
